The source of these data is patent US20060257904A1.

Where only a bound is given, the exact number is not on record here.

This assay concerns the target human recombinant prion protein (hrPrP), amino acid residues 23-231 of human PrPC (human) (UniProt P04156). The experiment in a line: cell-based or functional assay.

For the substance “α-2 macroglobulin (α2M), purified preparation”, the protection of PrP from PK degradation was found to be 4 µg; the protection of PrP from PK degradation in a mixture with tubulin was 16 µg; the protection of PrP from PK proteolysis (immunoblot with mAb 34C9) stood at 5 µg; the protection of rhuPrP from PK degradation, dose dependence was above 6 µg.
